Source: PMC10149931, “Wiskott-Aldrich syndrome protein interacts and inhibits diacylglycerol kinase alpha promoting IL-2 induction” (Frontiers in Immunology, 2023)

Biological target: myc-DGKα (UniProt P23743 1-735)
Experiment: cell-based or functional assay

myc-DGKα, sequence (P23743 whole entry): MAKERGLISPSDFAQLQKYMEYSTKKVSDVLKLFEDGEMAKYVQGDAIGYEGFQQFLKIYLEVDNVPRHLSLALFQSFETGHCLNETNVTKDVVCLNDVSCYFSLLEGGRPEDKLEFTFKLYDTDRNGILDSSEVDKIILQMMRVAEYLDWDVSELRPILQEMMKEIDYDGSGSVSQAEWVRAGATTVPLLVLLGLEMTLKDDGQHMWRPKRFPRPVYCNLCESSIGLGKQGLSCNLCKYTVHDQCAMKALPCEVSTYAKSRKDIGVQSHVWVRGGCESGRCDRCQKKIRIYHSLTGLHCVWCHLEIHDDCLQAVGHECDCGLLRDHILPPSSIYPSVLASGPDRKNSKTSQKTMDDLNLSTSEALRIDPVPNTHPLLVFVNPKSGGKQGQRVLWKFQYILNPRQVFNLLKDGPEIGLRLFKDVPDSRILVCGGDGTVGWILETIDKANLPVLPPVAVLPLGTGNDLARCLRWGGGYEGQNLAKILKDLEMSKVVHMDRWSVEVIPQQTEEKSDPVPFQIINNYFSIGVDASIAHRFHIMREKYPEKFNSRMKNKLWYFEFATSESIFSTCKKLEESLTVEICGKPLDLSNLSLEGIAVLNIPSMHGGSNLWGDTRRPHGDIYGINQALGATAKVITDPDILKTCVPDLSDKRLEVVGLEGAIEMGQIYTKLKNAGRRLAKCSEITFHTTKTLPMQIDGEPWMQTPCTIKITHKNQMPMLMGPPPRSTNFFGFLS

B1: FLAG-WASp (natural protein, UniProt P42768 1-502, looked up)
chain: MSGGPMGGRPGGRGAPAVQQNIPSTLLQDHENQRLFEMLGRKCLTLATAVVQLYLALPPGAEHWTKEHCGAVCFVKDNPQKSYFIRLYGLQAGRLLWEQELYSQLVYSTPTPFFHTFAGDDCQAGLNFADEDEAQAFRALVQEKIQKRNQRQSGDRRQLPPPPTPANEERRGGLPPLPLHPGGDQGGPPVGPLSLGLATVDIQNPDITSSRYRGLPAPGPSPADKKRSGKKKISKADIGAPSGFKHVSHVGWDPQNGFDVNNLDPDLRSLFSRAGISEAQLTDAETSKLIYDFIEDQGGLEAVRQEMRRQEPLPPPPPPSRGGNQLPRPPIVGGNKGRSGPLPPVPLGIAPPPPTPRGPPPPGRGGPPPPPPPATGRSGPLPPPPPGAGGPPMPPPPPPPPPPPSSGNGPAPPPLPPALVPAGGLAPGGGRGALLDQIRQGIQLNKTPGAPESSALQPPPQSSEGLVGALMHVMQKRSRAIHSSDEGEDQAGDEDEDDEWDD
decrease in DGK activity of total homogenates of 293T cells co-transfected with myc-DGKα and FLAG-WASp, against myc-DGKα with GFP control vector: ~50%
